According to publication PMC7110780, “Multimodular fused acetyl–feruloyl esterases from soil and gut Bacteroidetes improve xylanase depolymerization of recalcitrant biomass” (Biotechnology for Biofuels, 2020):

Assays:
Assay in all cases: purified protein
Type in all cases: biochemical, Flavobacterium johnsoniae
purified protein [1] = substrate: CC(=O)Oc1ccc2c(C)cc(=O)oc2c1; conditions: 100 mM buffer
purified protein [2] = substrate: COC(=O)/C=C/c1cc(OC)c(O)c(OC)c1; conditions: pH 6.5, 25 °C, 100 mM buffer
purified protein [3] = substrate: COC(=O)/C=C/c1ccc(O)c(O)c1; conditions: pH 6.5, 25 °C, 100 mM buffer
purified protein [4] = substrate: COC(=O)/C=C/c1ccc(O)c(OC)c1; conditions: pH 6.5, 25 °C, 100 mM buffer
purified protein [5] = substrate: COC(=O)/C=C/c1ccc(O)cc1; conditions: pH 6.5, 25 °C, 100 mM buffer

Protein | Km (purified protein [1]; pH 6.5, 25 °C) | kcat (purified protein [1]; pH 6.5, 25 °C) | kcat/Km (purified protein [1]; pH 6.5, 25 °C) | Km (purified protein [2]) | kcat (purified protein [2]) | kcat/Km (purified protein [2]) | Km (purified protein [3]) | kcat (purified protein [3]) | kcat/Km (purified protein [3]) | Km (purified protein [4]) | kcat (purified protein [4]) | kcat/Km (purified protein [4]) | Km (purified protein [5]) | kcat (purified protein [5]) | kcat/Km (purified protein [5]) | Km (purified protein [1]; pH 8, 25 °C) | kcat (purified protein [1]; pH 8, 25 °C) | kcat/Km (purified protein [1]; pH 8, 25 °C)
FjCE1 (Flavobacterium johnsoniae UW101) (protein, domain borders not in main text) FDEVNANAPQGKVEIVSYESKTVGSTRKATIYTPPGFNKNKKYPVLYLLHGIGGDEKEWLNGGQPNVILDNLYADGKLEPMIVVMPNGRAMKDDRAGGDIMAADKVKAFSVFEKDLLNDLIPFIEKKYPVLKDREHRAIAGLSMGGGQSLNFGLGNLDQFAWVGAFSAAPNTKIGTELLAKPEEAKKKLKLLWISCGDKDWLIENSTRTHDYLAKNNVPHIYYIEPGVHDFKVWKNGLYMFSQFLFKEVDPLVFQKYSISAYTIEK | 70 ± 10 µM | 0.61 ± 0.03 s⁻¹ | 8700 ± 1700 M⁻¹ s⁻¹ | 140 ± 20 µM | 1.8 ± 0.1 s⁻¹ | 13000 ± 2200 M⁻¹ s⁻¹ | 340 ± 100 µM | 0.83 ± 0.14 s⁻¹ | 2700 ± 1000 M⁻¹ s⁻¹ | 110 ± 20 µM | 2.5 ± 0.2 s⁻¹ | 23100 ± 4500 M⁻¹ s⁻¹ | 390 ± 120 µM | 1.5 ± 0.3 s⁻¹ | 3900 ± 1400 M⁻¹ s⁻¹ | – | – | –
FjCE6 (Flavobacterium johnsoniae UW101) (protein, domain borders not in main text) SQDPNFHVYLSFGQSNMEGFAKIEPQDKTGVNERFQVLSAVDCPEMGREKGKWYTAVPPLCRCTTGLTPMDYFGRTMISNLPQNIKVGVVNVAVGGCKIELFDKNNFESYVANSPDWLKNIVKQYDGNPYGRLVEMAKIAQKKGVIKGILLHQGESNTGDTLWPQKVKIVYDNLIKDLNLDPKKVPLLSGETVNEDQNGKCGSMNKIIAKLPQVLPNSYIISSKGCKADADFLHFSPEGYRELGKRYADKMLSLSGYMLFNGKE | – | – | – | – | – | – | – | – | – | – | – | – | – | – | – | 150 ± 20 µM | 6.7 ± 0.2 s⁻¹ | 43400 ± 4400 M⁻¹ s⁻¹
